Results published in publication PMC10917357, “Specific protein-RNA interactions are mostly preserved in biomolecular condensates”.

Key:
PTBP1 (C250S/C251S) [1] = molecular target: T1, PTBP1 (C250S/C251S) (Homo sapiens, UniProt P26599-1 1-531, C250S;C251S); experiment: UV cross-linking MS (LLPS-CLIR-MS); dispersed and condensed phases; RRM cross-links (H411, H457); Assay buffers largely not in the material; N protein in 20 mM sodium phosphate pH 6.0, 50 mM NaCl (fig. S7 dispersed mimic 300 mM NaCl); UV 254 nm; turbidity of N at room temperature; NMR 303 or 310 K; settings: protein: recombinant; label: 13C/15N-labeled and unlabeled 1:1; single strand
PTBP1 (C250S/C251S) [2] = molecular target: T1, PTBP1 (C250S/C251S); experiment: UV cross-linking MS (LLPS-CLIR-MS); dispersed and condensed phases; Assay buffers largely not in the material; N protein in 20 mM sodium phosphate pH 6.0, 50 mM NaCl (fig. S7 dispersed mimic 300 mM NaCl); UV 254 nm; turbidity of N at room temperature; NMR 303 or 310 K; settings: protein: recombinant; label: isotope-labeled; hairpin
FUS = FUS (UniProt P35637 1-526); experiment: UV cross-linking MS (LLPS-CLIR-MS); 0.075 and 0.1 eq RNA, 20 uM FUS; RRM (M321, Y325) and region C-terminal to ZnF; Assay buffers largely not in the material; N protein in 20 mM sodium phosphate pH 6.0, 50 mM NaCl (fig. S7 dispersed mimic 300 mM NaCl); UV 254 nm; turbidity of N at room temperature; NMR 303 or 310 K; settings: protein: recombinant; tags: GB1-His6 removed by TEV; label: isotope-labeled; two hairpins
[3] = molecular target: SARS-CoV-2 nucleocapsid (N) (SARS-CoV-2, UniProt P0DTC9 1-419); experiment: UV cross-linking MS (LLPS-CLIR-MS); Assay buffers largely not in the material; N protein in 20 mM sodium phosphate pH 6.0, 50 mM NaCl (fig. S7 dispersed mimic 300 mM NaCl); UV 254 nm; turbidity of N at room temperature; NMR 303 or 310 K; settings: protein: recombinant; tags: N-terminal His6 removed by TEV; chain copies: 2; label: 18O4-ATP post-digestion labeling; hairpin with internal loops

B1: 3xUCUCU (ssRNA)
RNA: GGGAGAUCUCUAAAAAUCUCUAAAAAUCUCUAAAAA
**Q.** Does B1 bind (PTBP1 (C250S/C251S) [1])?
**A.** binds

B2: U1-SL4 (structured_RNA)
RNA: GGGGGACUGCGUUCGCGCUUUCCC
**Q.** Does B2 bind (PTBP1 (C250S/C251S) [2])?
**A.** binds

B3: U1-SL34 (structured_RNA)
RNA: GGGAUCCGAUUUCCCCAAAUGUGGGAAACUCGACUGCAUAAUUUGUGGUAGUGGGGGACUGCGUUCGCGCUUUCCCCUG
**Q.** Does B3 bind (FUS)?
**A.** binds

B4: s2m (structured_RNA)
RNA: GGUUCACCGAGGCCACGCGGAGUACGAUCGAGUGUACAGUGAACC
**Q.** Does B4 bind [3]?
**A.** binds
